Test results taken from paper PMC3668751, “Assembly of the Yeast Exoribonuclease Rrp6 with Its Associated Cofactor Rrp47 Occurs in the Nucleus and Is Critical for the Controlled Expression of Rrp47*” (The Journal of Biological Chemistry, 2013).

B1: Recombinant full-length His6-Rrp47 (natural protein, S. cerevisiae, UniProt P38801 1-184, looked up)
chain: MEDIEKIKPYVRSFSKALDELKPEIEKLTSKSLDEQLLLLSDERAKLELINRYAYVLSSLMFANMKVLGVKDMSPILGELKRVKSYMDKAKQYDNRITKSNEKSQAEQEKAKNIISNVLDGNKNQFEPSISRSNFQGKHTKFENDELAESTTTKIIDSTDHIRKASSKKSKRLDKVGKKKGGKK
notes: Rrp47 (also known as Lrp1), S. cerevisiae, full-length recombinant protein; On its own a non-globular homodimer (theoretical homodimer mass 50,920 Da with the tag); One copy stands in the heterodimer with Rrp6NT; also called His-Rrp47; Lrp1; source: for the complex, co-lysed with cells expressing Rrp6NT
B2: GST-Rrp6NT (domain or fragment, S. cerevisiae, UniProt Q12149 1-211, looked up)
chain: MTSENPDVLLSRVINVVRAASSLASQDVDFYKNLDRGFSKDLKSKADKLADMANEIILSIDEHHESFELKEEDISDLWNNFGNIMDNLLEMSDHSLDKLNCAINSKSRGSDLQYLGEFSGKNFSPTKRVEKPQLKFKSPIDNSESHPFIPLLKEKPNALKPLSESLRLVDDDENNPSHYPHPYEYEIDHQEYSPEILQIREEIPSKSWDDS
notes: Rrp6, S. cerevisiae, N-terminal region (Rrp6NT, holds the PMC2NT domain); The preparation held some proteolytic fragments of the GST fusion; also called Rrp6NT domain; N-terminal region of Rrp6; source: E. coli, co-lysed with cells expressing His6-Rrp47; complex purified (Ni-NTA, glutathione-Sepharose, Superdex 200)
B3: C-terminally truncated Rrp47NT protein (domain or fragment, S. cerevisiae, UniProt P38801 1-120, looked up)
chain: MEDIEKIKPYVRSFSKALDELKPEIEKLTSKSLDEQLLLLSDERAKLELINRYAYVLSSLMFANMKVLGVKDMSPILGELKRVKSYMDKAKQYDNRITKSNEKSQAEQEKAKNIISNVLD
notes: Rrp47 (Lrp1), S. cerevisiae, N-terminal domain; the discussion gives it as the first 120 amino acid residues; it probably carries a His tag like the full-length protein; also called N-terminal domain of Rrp47; Rrp47NT polypeptide

What was measured:
[1] = biological target: the molecule itself; experiment: AUC; sedimentation velocity, 38,000 rpm, 20 °C, 50 mM Hepes pH 7.6, 500 mM NaCl, 0.25 and 1 mg/ml, absorbance at 280 nm, SEDFIT
[2] = biological target: B1; experiment: pull-down + SEC; E. coli cells expressing His6-Rrp47 or GST-Rrp6NT lysed together; Ni-NTA, then glutathione-Sepharose, then Superdex 200; 50 mM HEPES pH 7.6, 300 mM NaCl; ratio from densitometry of the Coomassie-stained SDS-PAGE of the peak fraction
[3] = biological target: the molecule itself; experiment: cross-linking; 0.01% glutaraldehyde on ice, ~40 µM protein, 50 mM HEPES pH 7.6, 300 mM NaCl; SDS-PAGE and Western blot

Binder: B1
- stoichiometry N [1]: 2

Binder: B2
- stoichiometry N [2]: 0.8 Rrp6NT per Rrp47

Binder: B3
- stoichiometry N [3]: 2
